Paper PMC11718114 (2025)

Tests used:
[1] = target: PI3Kα: p110α(2-1068) W1057A/I1058A/F1059A + p85(322-600) (human, UniProt P42336 2-1068; P27986 322-600, W1057A | I1058A | F1059A); test: ITC
PI3Kγ(144-1102)-His6 = PI3Kγ(144-1102)-His6 (human, UniProt P48736 144-1102); test: ITC
Sequence of PI3Kγ(144-1102)-His6 (P48736 144-1102): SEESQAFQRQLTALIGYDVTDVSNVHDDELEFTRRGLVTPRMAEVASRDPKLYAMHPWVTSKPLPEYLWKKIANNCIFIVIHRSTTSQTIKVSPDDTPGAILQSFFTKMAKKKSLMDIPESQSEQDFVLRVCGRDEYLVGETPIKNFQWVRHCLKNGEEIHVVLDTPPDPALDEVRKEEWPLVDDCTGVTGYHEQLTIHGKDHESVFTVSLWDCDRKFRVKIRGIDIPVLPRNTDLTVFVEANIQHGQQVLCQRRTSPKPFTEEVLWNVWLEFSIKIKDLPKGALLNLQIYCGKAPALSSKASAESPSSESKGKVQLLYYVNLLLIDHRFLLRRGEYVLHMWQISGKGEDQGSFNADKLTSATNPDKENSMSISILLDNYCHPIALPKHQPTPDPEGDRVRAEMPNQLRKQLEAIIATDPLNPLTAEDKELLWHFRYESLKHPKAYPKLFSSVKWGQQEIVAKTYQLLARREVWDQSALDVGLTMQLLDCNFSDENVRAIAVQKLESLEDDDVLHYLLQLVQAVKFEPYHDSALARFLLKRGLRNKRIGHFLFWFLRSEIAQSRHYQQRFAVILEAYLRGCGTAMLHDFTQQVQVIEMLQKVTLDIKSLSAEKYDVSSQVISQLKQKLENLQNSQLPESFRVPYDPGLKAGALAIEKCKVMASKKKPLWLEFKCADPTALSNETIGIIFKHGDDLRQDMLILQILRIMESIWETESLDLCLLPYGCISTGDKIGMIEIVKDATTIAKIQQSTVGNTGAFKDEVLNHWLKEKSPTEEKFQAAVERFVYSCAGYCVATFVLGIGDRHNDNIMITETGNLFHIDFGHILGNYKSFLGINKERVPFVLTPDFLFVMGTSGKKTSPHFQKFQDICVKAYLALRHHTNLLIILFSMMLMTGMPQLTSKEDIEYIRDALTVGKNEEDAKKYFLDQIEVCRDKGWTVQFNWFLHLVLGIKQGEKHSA

B1: RRAS(22-192) (domain or fragment)
chain: GDPPPSETHKLVVVGGGGVGKSALTIQFIQSYFVSDYDPTIEDSYTKICSVDGIPARLDILDTAGQEEFGAMREQYMRAGHGFLLVFAINDRQSFNEVGKLFTQILRVKDRDDFPVVLVGNKADLESQRQVPRSEASAFGASHHVAYFEASAKLRLNVDEAFEQLVRAVRK
Kd [1]: 27.6 µM

B2: RRAS2 (wild type) (domain or fragment)
chain: MAAAGWRDGSGQEKYRLVVVGGGGVGKSALTIQFIQSYFVTDYDPTIEDSYTKQCVIDDRAARLDILDTAGQEEFGAMREQYMRTGEGFLLVFSVTDRGSFEEIYKFQRQILRVKDRDEFPMILIGNKADLDHQRQVTQEEGQQLARQLKVTYMEASAKIRMNVDQAFHELVRVIRKFQ
Kd (PI3Kγ(144-1102)-His6): 5.5 µM
